Results on three molecules are retold here after publication PMC12408356 (Nature Microbiology, 2025).

The test has as its target T1, JUNV GPC MC2-TS (wild-type Junin virus glycoprotein complex) (Junin virus, MC2 strain, UniProt P26313, myristoyl on G2 | N-linked glycans | N-linked glycans).
T1 construct: copies: 3 + 3 + 3
The test can be described thus: flow cytometry on cells. The conditions noted are these: one partner purified. On the technique in general: Flow cytometry measures light scatter and fluorescence of single cells or particles in a stream.

T1 sequence (P26313 2-58, chain 1 of 3): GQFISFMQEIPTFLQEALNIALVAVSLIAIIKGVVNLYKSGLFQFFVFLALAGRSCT
T1 sequence (P26313 59-251, chain 2 of 3): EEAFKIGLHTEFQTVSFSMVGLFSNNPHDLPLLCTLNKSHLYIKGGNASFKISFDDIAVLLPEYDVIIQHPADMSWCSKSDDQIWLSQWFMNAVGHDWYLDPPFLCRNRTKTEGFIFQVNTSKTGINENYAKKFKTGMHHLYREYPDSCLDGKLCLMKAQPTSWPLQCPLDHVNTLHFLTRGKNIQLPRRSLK
T1 sequence (P26313 252-485, chain 3 of 3): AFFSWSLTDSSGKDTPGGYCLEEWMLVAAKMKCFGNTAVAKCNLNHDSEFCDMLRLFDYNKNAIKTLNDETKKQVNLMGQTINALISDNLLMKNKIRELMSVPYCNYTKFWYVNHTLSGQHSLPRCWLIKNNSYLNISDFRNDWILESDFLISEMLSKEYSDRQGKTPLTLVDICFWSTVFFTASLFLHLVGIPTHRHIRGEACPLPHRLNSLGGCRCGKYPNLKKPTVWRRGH

B1: CR1-07 (antibody, V domains shown)
VH: QVQLVESGGGVVHPGRSLRLSCAASGFTFGTSIMHWVRQAPGKGMQWVAQISHDESRKFYSDSVKGRFTVSRDNSKNTLFLEMSSLRIEDTAVYYCAKDLSPPYSYAWDIFQYWGQGSLVTVS
VL: DIVMTQSPESLAVSLGERATINCKSSQSVLYSSRSDNKDYLAWYQQKPGQSPKLLIYWASTRESGVPERFTGSGSGTDFTLSISSLQAEDVAVYYCQQYYSSPPTFGGGTKVELK
Turning to B1, the binding result was “binds”.

B2: CR1-28 (antibody, V domains shown)
VH: QVQLVESGGGVVQPGRSLRLSCAASGFTFSSSAMHWVRQAPGKGLEWVAVIWSDGSNENYADSVKGRFTISRDNSKNTLYLQMSSLRAEDTAVYYCATDKTYVSGYTSTWYYFNYWGQGTLVTVS
VL: DIQMTQSPSTLSASVGDRVTITCRASQSIDNWLAWYQQKPGKAPKLLIYTASRLESGVPSRFSGSGSGTEFTLTISSLQPDDFATYYCQHRTFGQGTKVEIK
With B2, the binding result was “binds”.

B3: CR1-10 (antibody, V domains shown)
VH: QVQLQESGPGLVKPSQTLSLTCSVSGGSIGGSSYYWSWIRHHPGKGLEWIGYINYRGITHYNAALKSRVSMSVETSQNHFSLQLTSVTAADTAVYYCARLTSDCSGGNCYQAFDYWGQGSLVSVS
VL: EIVLTQSPGTLSLSPGETATLSCRASQSVSSSYLAWYQQKPGQAPRLLIYGASGRATGIPDRFSGSGSGTDFTLTISRLEPEDFAVYYCQQYGRSGYTFGQGTKLEIK
In the case of B3, the binding result is reported as “binds”.
